Results from publication PMC12141716, “An archaeal nucleoid-associated protein binds an essential motif in DNA replication origins” (Nature Communications, 2025).
Blank lines part the entries; values can stand above or below the molecule they belong to.

Tests used:
[1] = target: UBP (ucm-binding protein), recombinant wild type (Sulfolobus islandicus REY15A) (UniProt F0NFD3); test: crystal structure; DNA-free UBP, two crystal forms (C2221 and twinned P21 with four dimers in the asymmetric unit); sodium acetate pH 4.8-5.2, PEG6000, 20 °C
[2] = target: T1, UBP (Sulfolobus islandicus REY15A, UniProt F0NFD3 1-111); test: EMSA; 0-740 nM UBP; EMSA: 50 mM K-acetate, 20 mM Tris-acetate, 10 mM Mg-acetate, 1 mM DTT, pH 7.9, 5-10% glycerol, 70 mM NaCl, 800 ng salmon sperm DNA per 10 ul, room temperature 10 min; footprinting same buffer, 4% glycerol, 8000 ng salmon sperm DNA; pull-down 25 mM HEPES pH 7.5, 150 mM NaCl, 10 mM MgCl, 100 uM ZnCl, 10 mM DTT, 48 C; conditions: protein: recombinant; tags: MBP tag removed by Factor Xa; 3 extra vector residues at N-terminus; chain copies: 2; label: 5'-32P; blunt
T1 sequence: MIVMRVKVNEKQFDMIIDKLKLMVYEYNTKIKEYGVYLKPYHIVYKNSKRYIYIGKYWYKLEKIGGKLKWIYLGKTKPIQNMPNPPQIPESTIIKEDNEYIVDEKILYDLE

[3] = target: T1, UBP; test: EMSA; EMSA: 50 mM K-acetate, 20 mM Tris-acetate, 10 mM Mg-acetate, 1 mM DTT, pH 7.9, 5-10% glycerol, 70 mM NaCl, 800 ng salmon sperm DNA per 10 ul, room temperature 10 min; footprinting same buffer, 4% glycerol, 8000 ng salmon sperm DNA; pull-down 25 mM HEPES pH 7.5, 150 mM NaCl, 10 mM MgCl, 100 uM ZnCl, 10 mM DTT, 48 C; conditions: protein: recombinant; tags: MBP tag removed by Factor Xa; 3 extra vector residues at N-terminus; chain copies: 2; label: 5'-32P; blunt
[4] = target: T1, UBP; test: EMSA; up to 740 nM UBP; EMSA: 50 mM K-acetate, 20 mM Tris-acetate, 10 mM Mg-acetate, 1 mM DTT, pH 7.9, 5-10% glycerol, 70 mM NaCl, 800 ng salmon sperm DNA per 10 ul, room temperature 10 min; footprinting same buffer, 4% glycerol, 8000 ng salmon sperm DNA; pull-down 25 mM HEPES pH 7.5, 150 mM NaCl, 10 mM MgCl, 100 uM ZnCl, 10 mM DTT, 48 C; conditions: protein: recombinant; tags: MBP tag removed by Factor Xa; 3 extra vector residues at N-terminus; chain copies: 2; label: 5'-32P
[5] = target: T2, UBP (DNA co-crystal) (Sulfolobus islandicus REY15A, UniProt F0NFD3 1-111); test: X-ray crystallography; 1.8 A; EMSA: 50 mM K-acetate, 20 mM Tris-acetate, 10 mM Mg-acetate, 1 mM DTT, pH 7.9, 5-10% glycerol, 70 mM NaCl, 800 ng salmon sperm DNA per 10 ul, room temperature 10 min; footprinting same buffer, 4% glycerol, 8000 ng salmon sperm DNA; pull-down 25 mM HEPES pH 7.5, 150 mM NaCl, 10 mM MgCl, 100 uM ZnCl, 10 mM DTT, 48 C; conditions: protein: recombinant; tags: MBP tag removed by Factor Xa; 3 extra vector residues at N-terminus; blunt
T2 sequence: T1 sequence

[6] = target: T1, UBP; test: EMSA; 370 nM UBP; EMSA: 50 mM K-acetate, 20 mM Tris-acetate, 10 mM Mg-acetate, 1 mM DTT, pH 7.9, 5-10% glycerol, 70 mM NaCl, 800 ng salmon sperm DNA per 10 ul, room temperature 10 min; footprinting same buffer, 4% glycerol, 8000 ng salmon sperm DNA; pull-down 25 mM HEPES pH 7.5, 150 mM NaCl, 10 mM MgCl, 100 uM ZnCl, 10 mM DTT, 48 C; conditions: protein: recombinant; tags: MBP tag removed by Factor Xa; 3 extra vector residues at N-terminus; chain copies: 2; label: 5'-32P; blunt
[7] = target: T3, MCM-NT (Sulfolobus islandicus REY15A, UniProt F0NF15 1-266); test: EMSA; without UBP; EMSA: 50 mM K-acetate, 20 mM Tris-acetate, 10 mM Mg-acetate, 1 mM DTT, pH 7.9, 5-10% glycerol, 70 mM NaCl, 800 ng salmon sperm DNA per 10 ul, room temperature 10 min; footprinting same buffer, 4% glycerol, 8000 ng salmon sperm DNA; pull-down 25 mM HEPES pH 7.5, 150 mM NaCl, 10 mM MgCl, 100 uM ZnCl, 10 mM DTT, 48 C; conditions: protein: recombinant; tags: C-terminal 6xHis; chain copies: 6; label: 5'-32P; blunt
T3 sequence: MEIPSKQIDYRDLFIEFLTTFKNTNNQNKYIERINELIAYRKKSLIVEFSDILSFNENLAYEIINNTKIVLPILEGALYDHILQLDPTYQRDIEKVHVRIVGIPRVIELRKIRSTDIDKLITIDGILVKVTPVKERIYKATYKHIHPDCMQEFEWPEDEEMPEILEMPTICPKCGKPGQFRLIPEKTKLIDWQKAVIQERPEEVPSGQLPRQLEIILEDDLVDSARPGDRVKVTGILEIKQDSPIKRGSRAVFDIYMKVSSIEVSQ

[8] = target: T4, MCM (UniProt F0NF15 1-686); test: as above; conditions: protein: recombinant; chain copies: 6; label: 5'-32P; blunt
T4 sequence: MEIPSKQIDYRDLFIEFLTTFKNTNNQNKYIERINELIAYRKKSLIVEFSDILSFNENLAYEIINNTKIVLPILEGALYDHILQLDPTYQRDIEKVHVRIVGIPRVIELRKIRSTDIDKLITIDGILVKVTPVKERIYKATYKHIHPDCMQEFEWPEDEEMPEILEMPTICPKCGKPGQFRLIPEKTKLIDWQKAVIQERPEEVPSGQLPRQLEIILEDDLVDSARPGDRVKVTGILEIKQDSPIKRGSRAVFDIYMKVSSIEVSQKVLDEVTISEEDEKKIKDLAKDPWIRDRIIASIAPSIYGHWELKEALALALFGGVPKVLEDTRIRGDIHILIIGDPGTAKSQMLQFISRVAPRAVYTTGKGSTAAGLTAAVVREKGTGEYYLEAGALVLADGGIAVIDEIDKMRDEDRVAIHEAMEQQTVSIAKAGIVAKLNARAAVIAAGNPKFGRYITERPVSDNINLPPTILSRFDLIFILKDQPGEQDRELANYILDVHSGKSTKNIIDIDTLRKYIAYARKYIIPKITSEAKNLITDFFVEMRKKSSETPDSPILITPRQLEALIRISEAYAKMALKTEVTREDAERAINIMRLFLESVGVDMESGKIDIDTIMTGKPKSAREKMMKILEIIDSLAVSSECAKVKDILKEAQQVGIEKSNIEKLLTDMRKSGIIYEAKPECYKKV

[9] = target: T5, UBP;MCM-NT (Sulfolobus islandicus REY15A;Sulfolobus …, UniProt F0NFD3;F0NF15 1-111;1-266, |); test: EMSA; 370 nM UBP; preferred over naked DNA; EMSA: 50 mM K-acetate, 20 mM Tris-acetate, 10 mM Mg-acetate, 1 mM DTT, pH 7.9, 5-10% glycerol, 70 mM NaCl, 800 ng salmon sperm DNA per 10 ul, room temperature 10 min; footprinting same buffer, 4% glycerol, 8000 ng salmon sperm DNA; pull-down 25 mM HEPES pH 7.5, 150 mM NaCl, 10 mM MgCl, 100 uM ZnCl, 10 mM DTT, 48 C; conditions: protein: recombinant;recombinant; tags: MBP tag removed by Factor Xa; 3 extra vector residues at N-terminus;C-terminal 6xHis; label: 5'-32P; blunt
T5 sequence 1: T1 sequence
T5 sequence 2: T3 sequence

[10] = target: T6, UBP;MCM (Sulfolobus islandicus REY15A;Sulfolobus …, UniProt F0NFD3;F0NF15 1-111;1-686, |); test: as above; conditions: protein: recombinant;recombinant; tags: MBP tag removed by Factor Xa; 3 extra vector residues at N-terminus;; label: 5'-32P; blunt
T6 sequence 1: T1 sequence
T6 sequence 2: T4 sequence

[11] = target: T7, MCM replicative helicase, full-length recombinant (Sulfolobus islandicus REY15A, UniProt F0NF15 1-686); test: MCM recruitment (in vitro loading) assay on bead-bound origin DNA; 200 pM DNA on magnetic beads, UBP and/or Orc1-1 E147A 1 µM, 2 mM ATP, 50 °C, MCM 12.9 nM; washes with binding buffer and with 500 mM potassium acetate; western blot; conditions: both partners purified
T7 construct: MCM replicative helicase, Sulfolobus islandicus REY15A, SiRe_1228; The introduction and discussion call archaeal MCM a homohexamer (cited work); also called full-length MCM; recombinant MCM
T7 sequence (looked up): T4 sequence

stoichiometry N [1]: 2
Molecule: UBP (ucm-binding protein), recombinant wild type (from UniProt F0NFD3 1-111)

B1: ucm 20 bp (P17/P18) (dsDNA)
DNA 1: AACCATTATACAAAAGAATT
DNA 2: AATTCTTTTGTATAATGGTT
binding result [2]: binds

B2: scr 50 bp (P7/P8) (dsDNA)
DNA 1: ATAATATTTGAAATTAAATGCTTAGTGAATATACGTACAGAATAAAAATT
DNA 2: AATTTTTATTCTGTACGTATATTCACTAAGCATTTAATTTCAAATATTAT
binding result [3]: no binding

B3: ucm 20 nt top strand (P17) (ssDNA)
DNA: AACCATTATACAAAAGAATT
binding result [4]: no binding

B4: ucm 50 bp WT (P5/P6) (dsDNA)
DNA 1: TTGTTATAATTAGATAACCATTATACAAAAGAATTGTATAAGAATGAAAT
DNA 2: ATTTCATTCTTATACAATTCTTTTGTATAATGGTTATCTAATTATAACAA
binding result [3]: binds

B5: ucm 20 nt lower strand (P18) (ssDNA)
DNA: AATTCTTTTGTATAATGGTT
binding result [4]: no binding

B6: 12 bp ucm crystal DNA (P49/P50) (dsDNA)
DNA 1: ATTATACAAAAG
DNA 2: CTTTTGTATAAT
modifications: 5-bromo-dU at positions 2 and 5 of strand 1 and 2 and 9 of strand 2 (written T)
binding result [5]: binds

B7: oriC1 140 bp (P21/P22) (dsDNA)
DNA 1: TATTTTGAGCAACATTTTGTTATAATTAGATAACCATTATACAAAAGAATTGTATAAGAATGAAATCAAAGCTTATTTTATGTCACTAGAATCTCCAAATGAAATACTGGGGTAGGCCTTGTTTATGACACAACTTACAT
DNA 2: ATGTAAGTTGTGTCATAAACAAGGCCTACCCCAGTATTTCATTTGGAGATTCTAGTGACATAAAATAAGCTTTGATTTCATTCTTATACAATTCTTTTGTATAATGGTTATCTAATTATAACAAAATGTTGCTCAAAATA
binding result [6]: binds
binding result [7]: binds
binding result [8]: binds
binding result [9]: binds
binding result [10]: binds

binding result [11]: binds
B8: Orc1-1 E147A (Walker B mutant) (natural protein, Sulfolobus islandicus REY15A, UniProt F0NBP2 1-397, looked up)
chain: MSDIIDEVISSFRTSSIFVNREYLMPDYIPDELPHRENQIRKIASILAPLYREEKPNNIFIYGLTGTGKTAVVKFVLSRFHKKFLGKFKYIYINTRQIDTPYRVLADLLESLDVKVPFTGLSIAELYRRLVKAIREYDSQVVIVLDAIDAFVKRYNDDILYKLSRINSEVNRSKVSFIGITNDVKFVDLLDPRVKSSLSEEEIVFPPYNAEELEDILTKRAQMAFRPGVLPDNVIRLCAALAAREHGDARRALDLLRVAGEIAERLKDSKVKEEYVHLAKEEIERDRVRDIILTLPFHSKLVLTAVASMSSEDNVVLTTGAVYETYLNICKKLGVEPITQRRVSDIINELDMVGILRAKVVNRGRYGKTKEIGLAVDKNIIVKSLIESDSRFADLWG
notes: Orc1-1 replication initiator, Sulfolobus islandicus REY15A, SiRe_1740
